The values below come from patent US11819552B2, “Antibody-drug conjugates targeting uPARAP” (RIGSHOSPITALET, priority 2016, dated 2023).

“Also recorded” adds a separate entry of the source.

Data set [1] relates to human glioblastoma explant cells. Nature of the data set: In vitro cell viability assay on glioblastoma explant cells. As to conditions: as FIG. 5 assay; vs aTNP-based control ADCs. The procedure: (§1) Cells tested were seeded at low density (20-25% confluence, generally 5-10×10^3 cells per well) in a 96 well plate in 90 μL of medium, and incubated overnight. […] Cells were incubated for 72 hours, before 20 μL of CellTiter 96 AQueous One Solution Cell Proliferation Assay (MTS, Promega) was added, and incubated for an appropriate time for formation of color (usually 1 hour). The plates were then read at 490 nm, with background subtraction at 630 nm, using a plate reader.
The ADCs 2h9-vc-MMAE and 2h9-vc-MMAF were tested by in vitro cell viability assays, performed as described in Example 1, for their capacity to specifically kill human glioblastoma explant cells. Glioblastoma explant cells are e.g. described in Staberg et al., 2017, Cell Oncol. 40: 21-32.

Data set [2] addresses T1, soluble truncated uPARAP protein containing the first 3 N-terminal domains of human uPARAP (Homo sapiens, UniProt Q9UBG0).
T1 construct: a soluble truncated uPARAP protein containing the first 3 N-terminal domains of human uPARAP
T1 sequence (Q9UBG0 31-365): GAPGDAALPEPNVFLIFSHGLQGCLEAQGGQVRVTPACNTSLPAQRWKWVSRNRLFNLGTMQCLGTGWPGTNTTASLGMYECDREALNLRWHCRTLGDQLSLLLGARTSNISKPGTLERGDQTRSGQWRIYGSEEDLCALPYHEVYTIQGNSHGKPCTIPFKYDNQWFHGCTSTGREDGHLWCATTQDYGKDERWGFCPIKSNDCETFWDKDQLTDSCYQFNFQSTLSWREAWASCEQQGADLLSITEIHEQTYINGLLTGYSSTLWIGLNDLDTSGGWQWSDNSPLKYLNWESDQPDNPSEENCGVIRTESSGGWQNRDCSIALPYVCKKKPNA
Put plainly: ELISA analysis of uPARAP-binding of mAbs. As to conditions: after reduction step of conjugation, or in ADC form. The procedure: Untreated mAbs (2h9 or aTNP), same mAbs subjected to the reduction procedure of conjugation (see above), or ADCs 2h9-vc-MMAE or aTNP-vc-MMAE, were then employed as a primary antibody, followed by a HRP-conjugated rabbit anti-mouse Ig secondary antibody. Finally an o-phenylenediamine dihydrochloride-containing substrate solution was added, and the color reaction was stopped by adding 1M H2SO4. Plates were read at 492 nm using a plate reader.
(In general: ELISA stands for enzyme-linked immunosorbent assay.)

The subject of data set [3] is U937 cells. Nature of the data set: In vitro cytotoxicity of ADCs, cell viability assay (MTS). The class given is cell-based. The settings on record: 72 hours, 4-fold dilutions from 10 μg/mL ADC (mAb component), vs aTNP-vc-MMAE. The procedure:
as §1

In data set [4] the test system is HT1080 cells. The description is as above. The class given is cell-based. The settings on record: 72 hours, 4-fold dilutions from 10 μg/mL ADC, vs aTNP-vc-MMAE. How it is done:
as §1

Data set [5] has as its system CHO-K1 (receptor-negative cell line). Described as above. As to conditions: 72 hours, 4-fold dilutions from 10 μg/mL ADC. The class given is cell-based. The procedure: as §1
Data set [6] deals with THP-1 cells. The description is as above. The settings on record: 72 hours, 4-fold dilutions from 10 μg/mL ADC, vs aTNP-vc-MMAE. The class given is cell-based. The procedure: as §1
Data set [7] relates to KNS42 cells. The data set is described as above. As to conditions: 72 hours, 4-fold dilutions from 10 μg/mL ADC, vs aTNP-vc-MMAE. The data set is classed as cell-based. How it is done: as §1
Data set [8] deals with U937 xenograft tumour. Put plainly: Subcutaneous uPARAP-positive U937 xenograft tumour model, treatment by s.c. injection. The data set is classed as in vivo, CB17 SCID mice. How it is done:
(§2) All animal experiments were performed under legal approval from The Danish Veterinary and Food Administration. All reagents and cell lines used for animal experiments were tested negative for the presence of murine viruses, bacteria, mycoplasma and fungi. Animals received standard of care, and were sacrificed upon any of the following signs: loss of more than 10% of body weight, visible distress or illness, compromised food—or water intake or defecation, signs of severe inflammation in the vicinity of tumours, or tumour growth which exceeded a volume of 1000 mm^3 or compromised the free movement of the animals. Tumour growth was measured using electronic calipers, and tumour volumes were calculated using the formula Volume=(LxW^2)/2, with L being the longest dimension of the tumour, and W being the width in the perpendicular dimension.
For tumour establishment, mice were shaved at the flank, and received a subcutaneous injection of 1×10^6 U937 cells, and then closely monitored in order to observe the development of solid tumours. […] All treatments were given as a total of 4 subcutaneous doses of 3 mg/kg mAb component in the tumour area, at 4 days intervals. Injections were performed under brief isoflurane anesthesia to avoid risks for the animal handler. During treatment, the tumours were evaluated every two days, until reaching a point of sacrifice. Mice which fully lost any tumour burden were checked two times a week for a period of 3 months after ending treatment.

Data set [9] deals with U937 cells. Nature of the data set: Cell cycle distribution analysis. The settings on record: 3-day incubation, 1 μg/mL ADC. The class given is cell-based. How it is done: (§3) Cell cycle analysis was performed using a Nucleocounter NC-3000 system (ChemoMetec Denmark), using the manufacturers standard protocol for analyzing the cell cycle distribution of a population of cells, based on the DNA content of each cell. The percentage of cells in Sub-G1, G1, S, or G2/M-phases of the cell cycle was established from histogram analysis using the NucleoView NC-3000 software.

In data set [10] the test system is HT1080 cells. Put plainly: Cell cycle distribution analysis. The class given is cell-based. The settings on record: 3-day incubation, 1 μg/mL ADC. The procedure: as §3
The test system of data set [11] is THP-1 cells. Put plainly: Cell cycle distribution analysis. The class given is cell-based. As to conditions: 3-day incubation, 1 μg/mL ADC. The procedure: as §3
Data set [12] deals with KNS42 cells. Put plainly: Cell cycle distribution analysis. The data set is classed as cell-based. The settings on record: 3-day incubation, 1 μg/mL ADC. How it is done:
as §3

The subject of data set [13] is U937 xenograft tumour. Nature of the data set: Subcutaneous uPARAP-positive U937 xenograft tumour model, treatment by intravenous injection. The class given is in vivo, CB17 SCID mice. How it is done:
as §2
For tumour establishment, mice were shaved at the flank, and received a subcutaneous injection of 1×10^6 U937 cells, and then closely monitored in order to observe the development of solid tumours. […] All treatments were given as a total of 3 intravenous doses of 5 mg/kg mAb component in the tail veins of the mice, at 4 days intervals. During treatment, the tumours were evaluated every two days, until reaching a point of sacrifice. Mice which fully lost any tumour burden were checked two times a week for a period of 3 months after ending treatment.

Data set [14] has as its target T2, recombinant human (rh) Cathepsin B (Homo sapiens, UniProt P07858).
T2 construct: purchased
Nature of the data set: Cathepsin B linker cleavage assay (reducing SDS-PAGE). The class given is biochemical. As to conditions: incubation with activated rh cathepsin B, 37° C. overnight. The procedure:
Reducing SDS-PAGE was performed by running a 4-12% NuPAGE Bis-Tris SDS-PAGE gel, loading 5 μg of total protein per lane, reduced by boiling for 3 minutes in sample buffer in the presence of 40 mM DTT. The gels were stained using a standard 0.1% coomassie blue stain. For cathepsin B linker cleavage assay, samples were treated with recombinant human (rh) Cathepsin B according to manufacturer's instructions, using 100 ng of activated rhCathepsin B to 20 μg ADC (mAb component), in a 25 mM MES, pH 5.0 buffer, and incubation at 37° C. overnight.

The mark [15] stands for this setting: s.c., 3 mg/kg, 4 doses, of the 10 mice treated.

B1: 2h9-vc-MMAE: uPARAP-directed ADC: mAb 2h9 conjugated to MC-VC-PAB-MMAE (Vedotin) linker-toxin (conjugate)
light: DIQMTQSPASQSASLGESVTITCLASQTIGTWLAWYQQKPGKSPQLLIYAATTLTDGVPSRFSGAGSGTKFSLKISSLQAEDFASYFCQEFFSTPFTFGSGTKLELKRADAAPTVSIFPPSSEQLTSGGASVVCFLNNFYPKDINVKWKIDGGERQNGVLNSWTDQDSKDSTYSMSSTLTLTKDEYERHNSYTCEATHKTSTSPIVKSFNRNEC
heavy: QVQLQQPGTELVRPGLSVKLSCKASGYTFTSYWMNWVKQRPGQGLEWIGMIHPSNDEKRINQKFKDKATLTVDKFSSTVYMQVSSPTSEDSAVYYCARGGGDYVGDYALDFWGQGTSVTVSSAKTTPPSVYPLAPGSAAQTNSMVTLGCLVKGYFPEPVTVTWNSGSLSSGVHTFPAVLQSDLYTLSSSVTVPSSTWPSETVTCNVAHPASSTKVDKKIVPRDCGCKPCICTVPEVSSVFIFPPKPKDVLTITLTPKVTCVVVDISKDDPEVQFSWFVDDVEVHTAQTQPREEQFNSTFRSVSELPIMHQDWLNGKEFKCRVNSAAFPAPIEKTISKTKGRPKAPQVYTIPPPKEQMAKDKVSLTCMITDFFPEDITVEWQWNGQPAENYKNTQPIMDTDGSYFIYSKLNVQKSNWEAGNTFTCSVLHEGLHNHHTEKSLSHSPGK
B1: the “Cell viability / sensitivity of glioblastoma explant cells” value in data set [1] is “very strong and specific sensitivity; also recorded: high degree of specific sensitivity”. Besides, the “Affinity towards uPARAP following conjugation procedure” value in data set [2] was “retained affinity”. The Overall cell viability entry in the data set on U937 cells [3] is “most sensitive cell line tested; also recorded: specific reduction in overall cell viability”; in the data set on HT1080 cells [4] it was “specific reduction in overall viability”; in [5], “remains unaffected”; in the data set with THP-1 cells [6], “specific reduction in overall viability”; in the data set with KNS42 cells [7] it was “specific reduction in overall viability”. The Tumour growth result in the data set with U937 xenograft tumour [8] (s.c. near the tumour, 3 mg/kg mAb component, 4 doses every 4 days) is “drastic decrease in tumour growth”. Further, the Permanent cure rate with U937 xenograft tumour [8] (s.c., 3 mg/kg mAb component, 4 doses every 4 days, N=10) worked out at 50%; with U937 xenograft tumour [13] (i.v., 5 mg/kg mAb component, 3 doses every 4 days, N=10), 100%. Further, in the data set with U937 xenograft tumour [8] (setting [15]), the “Mice free from tumour growth for a period of 90 days” value is 5 mice. Moreover, the “Mice with almost immediate relapse of tumour growth following treatment” value with U937 xenograft tumour [8] (setting [15]) turned out to be 5 mice. Further, the Cell cycle distribution result was “shift in cell cycle distribution towards the Sub-G1 and G2/M phases” in the data set on U937 cells [9]; “shift in cell cycle distribution towards the Sub-G1 and G2/M phases” in the data set on HT1080 cells [10]; “shift in cell cycle distribution towards the Sub-G1 and G2/M phases” in the data set with THP-1 cells [11]; “shift in cell cycle distribution towards the Sub-G1 and G2/M phases” in the data set with KNS42 cells [12]. The Tumour burden entry with U937 xenograft tumour [13] (i.v. tail vein, 5 mg/kg mAb component, 3 doses every 4 days, all 10 mice) is “complete abrogation of the tumour burden”. Moreover, in the data set on U937 xenograft tumour [13] (regular inspection of the treated mice, antibody cross-reactive with murine uPARAP), the “Adverse / detrimental effects on treated mice” value is recorded as “without any evident adverse effects; also recorded: no signs of detrimental effects were seen”. In addition, in [14], the “Linker cleavage by cathepsin B (gel mobility)” value is “reverts ADC gel mobility back to that of unmodified targeting antibody”.
